The source of these data is patent US12221465.

The target of the assay is empty A2-SABR pulsed with soluble MART1 peptide (…) (Homo sapiens; human) (UniProt P61769). The assay can be described thus: cell-based or functional assay.

F5 TCR had a fold decrease in antigen sensitivity (concentration of the peptide required for half-maximal signaling), SABR signaling against TCR signaling of 30 fold.
